Experimental data taken from article PMC9482650, “Quantitative fragmentomics allow affinity mapping of interactomes” (Nature Communications, 2022).

Experiments:
Assay in all cases: holdup assay
Design in all cases: key: below the threshold = too weak to quantify, mostly under pKd 3.1 to 4
Settings in all cases: plain residues with an end cap or a label only (N-terminal biotin on a linker: ado-ado)
[1] = target: Inadl_8, Q8NI35
[2] = target: T1, DLG3_1, Q92796
T1 sequence (Q92796 125-227, limits assumed, looked up): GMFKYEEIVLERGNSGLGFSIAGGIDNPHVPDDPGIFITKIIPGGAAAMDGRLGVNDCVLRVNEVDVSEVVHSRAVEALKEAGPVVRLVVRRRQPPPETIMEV

[3] = target: TJP2_1, Q9UDY2
Sequence of TJP2_1, Q9UDY2 (Q9UDY2 24-128): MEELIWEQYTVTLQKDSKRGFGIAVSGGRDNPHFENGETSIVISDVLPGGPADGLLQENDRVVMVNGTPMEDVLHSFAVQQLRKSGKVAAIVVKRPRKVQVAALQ

[4] = target: T2, PARD3B_1, Q8TEW8
T2 sequence (Q8TEW8 196-299, limits assumed, looked up): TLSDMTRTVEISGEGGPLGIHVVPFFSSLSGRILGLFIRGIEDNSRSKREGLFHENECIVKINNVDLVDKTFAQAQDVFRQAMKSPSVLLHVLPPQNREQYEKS

[5] = target: PICK1, Q9NRD5
Sequence of PICK1, Q9NRD5 (Q9NRD5 17-115): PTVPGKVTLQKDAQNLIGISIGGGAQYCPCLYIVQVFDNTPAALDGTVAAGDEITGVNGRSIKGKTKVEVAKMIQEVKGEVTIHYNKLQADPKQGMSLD

[6] = target: T3, MPDZ_12, O75970
T3 sequence (O75970 1857-1958, limits assumed, looked up): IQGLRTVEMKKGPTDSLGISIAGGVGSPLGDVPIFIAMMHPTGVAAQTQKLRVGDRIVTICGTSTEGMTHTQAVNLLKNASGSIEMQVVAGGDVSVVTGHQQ

[7] = target: SCRIB_3, Q14160
Sequence of SCRIB_3, Q14160 (Q14160 999-1103): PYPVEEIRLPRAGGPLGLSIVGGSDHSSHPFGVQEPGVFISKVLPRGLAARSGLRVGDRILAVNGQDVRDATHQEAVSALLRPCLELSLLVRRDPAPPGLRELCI

[8] = target: Inadl_3, Q8NI35
Sequence of Inadl_3, Q8NI35 (Q8NI35 359-469): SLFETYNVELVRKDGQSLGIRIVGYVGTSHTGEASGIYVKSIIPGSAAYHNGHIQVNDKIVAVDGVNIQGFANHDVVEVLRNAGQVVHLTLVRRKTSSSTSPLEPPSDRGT

[9] = target: FRMPD2_2, Q68DX3
Sequence of FRMPD2_2, Q68DX3 (Q68DX3 944-1038): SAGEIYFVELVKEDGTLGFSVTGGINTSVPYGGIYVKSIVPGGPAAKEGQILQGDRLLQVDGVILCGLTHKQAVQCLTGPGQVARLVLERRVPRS

[10] = target: T4, RAPGEF6, Q8TEU7
T4 sequence (Q8TEU7 525-625, limits assumed, looked up): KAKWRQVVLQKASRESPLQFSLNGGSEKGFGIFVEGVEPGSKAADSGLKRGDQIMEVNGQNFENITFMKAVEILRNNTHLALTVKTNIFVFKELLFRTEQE

[11] = target: DLG4_1, P78352
Sequence of DLG4_1, P78352 (P78352 62-152): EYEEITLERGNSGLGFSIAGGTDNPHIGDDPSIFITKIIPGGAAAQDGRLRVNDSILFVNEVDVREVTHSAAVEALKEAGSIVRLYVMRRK

[12] = target: HTRA2, O43464
Sequence of HTRA2, O43464 (O43464 355-458): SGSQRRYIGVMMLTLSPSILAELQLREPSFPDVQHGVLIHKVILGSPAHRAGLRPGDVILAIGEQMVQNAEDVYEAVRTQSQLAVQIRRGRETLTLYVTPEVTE

[13] = target: T5, DLG3_2, Q92796
T5 sequence (Q92796 221-321, limits assumed, looked up): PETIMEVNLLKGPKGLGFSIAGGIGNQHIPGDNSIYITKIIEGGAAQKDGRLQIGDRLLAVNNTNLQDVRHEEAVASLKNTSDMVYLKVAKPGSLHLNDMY

[14] = target: T6, TX1BP3, O14907
T6 sequence (O14907 10-122, limits assumed, looked up): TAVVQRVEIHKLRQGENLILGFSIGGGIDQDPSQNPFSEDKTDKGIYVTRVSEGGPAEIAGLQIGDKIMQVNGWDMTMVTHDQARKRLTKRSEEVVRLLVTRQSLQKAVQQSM

[15] = target: MAGI2_4, Q86UL8
Sequence of MAGI2_4, Q86UL8 (Q86UL8 772-865): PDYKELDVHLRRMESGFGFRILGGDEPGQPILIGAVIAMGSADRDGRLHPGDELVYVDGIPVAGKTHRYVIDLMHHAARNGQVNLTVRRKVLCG

[16] = target: FRMPD2_1, Q68DX3
Sequence of FRMPD2_1, Q68DX3 (Q68DX3 770-861): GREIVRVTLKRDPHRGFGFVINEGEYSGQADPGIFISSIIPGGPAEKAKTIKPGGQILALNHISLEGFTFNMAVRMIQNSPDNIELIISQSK

[17] = target: MAGI2_5, Q86UL8
Sequence of MAGI2_5, Q86UL8 (Q86UL8 915-1017): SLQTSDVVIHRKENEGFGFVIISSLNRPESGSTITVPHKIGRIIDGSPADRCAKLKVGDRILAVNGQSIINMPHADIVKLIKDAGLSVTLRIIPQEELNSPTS

[18] = target: GOPC, Q9HD26
[19] = target: T7, LNX2_2, Q8N448
T7 sequence (Q8N448 334-432, limits assumed, looked up): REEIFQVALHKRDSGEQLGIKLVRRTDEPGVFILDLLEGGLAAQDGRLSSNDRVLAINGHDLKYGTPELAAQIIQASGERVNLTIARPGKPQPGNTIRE

[20] = target: T8, SNTB1, Q13884
T8 sequence (Q13884 107-205, limits assumed, looked up): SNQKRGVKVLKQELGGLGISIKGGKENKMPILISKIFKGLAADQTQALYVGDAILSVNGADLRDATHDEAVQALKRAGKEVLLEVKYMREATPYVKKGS

[21] = target: MAST2, Q6P0Q8
Sequence of MAST2, Q6P0Q8 (Q6P0Q8 1099-1202): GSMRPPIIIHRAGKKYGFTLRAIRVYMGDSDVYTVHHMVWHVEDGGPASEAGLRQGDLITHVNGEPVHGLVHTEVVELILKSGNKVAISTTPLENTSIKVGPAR

[22] = target: Inadl_6, Q8NI35
Sequence of Inadl_6, Q8NI35 (Q8NI35 1058-1167): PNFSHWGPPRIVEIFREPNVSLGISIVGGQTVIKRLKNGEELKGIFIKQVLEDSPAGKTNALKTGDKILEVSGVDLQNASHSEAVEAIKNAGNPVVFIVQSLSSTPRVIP

[23] = target: T9, FRMPD1, Q5SYB0
T9 sequence (Q5SYB0 52-145, limits assumed, looked up): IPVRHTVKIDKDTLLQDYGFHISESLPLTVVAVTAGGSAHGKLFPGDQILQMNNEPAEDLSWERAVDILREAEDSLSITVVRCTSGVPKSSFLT

[24] = target: MAST1, Q9Y2H9
Sequence of MAST1, Q9Y2H9 (Q9Y2H9 962-1065): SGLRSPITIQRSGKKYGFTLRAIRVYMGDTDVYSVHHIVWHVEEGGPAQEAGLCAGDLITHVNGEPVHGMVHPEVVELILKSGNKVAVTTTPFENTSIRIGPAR

[25] = target: T10, GRIP1_5, Q9Y3R0
T10 sequence (Q9Y3R0 568-668, limits assumed, looked up): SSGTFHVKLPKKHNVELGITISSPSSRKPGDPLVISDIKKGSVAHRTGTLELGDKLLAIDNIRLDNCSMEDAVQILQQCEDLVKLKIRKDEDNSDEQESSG

[26] = target: PTPN3, P26045
Sequence of PTPN3, P26045 (P26045 505-587): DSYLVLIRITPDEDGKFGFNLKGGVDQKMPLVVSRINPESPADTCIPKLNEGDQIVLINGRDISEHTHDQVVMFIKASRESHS

[27] = target: GORASP2, Q9H8Y8

Sequence of Inadl_8, Q8NI35 (Q8NI35 1425-1530): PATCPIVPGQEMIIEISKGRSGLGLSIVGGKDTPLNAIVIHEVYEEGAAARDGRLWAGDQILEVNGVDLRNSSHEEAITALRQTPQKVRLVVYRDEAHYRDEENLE

| Binder | pKd [1] | pKd [2] | pKd [3] | pKd [4] | pKd [5] | pKd [6] | pKd [7] | pKd [8] | pKd [9] | pKd [10] | pKd [11] | pKd [12] | pKd [13] | pKd [14] | pKd [15] | pKd [16] | pKd [17] | pKd [18] | pKd [19] | pKd [20] | further results |
| --- | --- | --- | --- | --- | --- | --- | --- | --- | --- | --- | --- | --- | --- | --- | --- | --- | --- | --- | --- | --- | --- |
| PKLMGVETVV [DUSP10, Q9Y6W6] | 3.5 | 4.63 | below the threshold | below the threshold | below the threshold | below the threshold | 4.44 | 4.51 | 4.1 | below the threshold | 5.16 | below the threshold | 5.2 | 4.15 | 4.14 | below the threshold | 4.06 | 4.25 | 5.21 | 5.17 | pKd [21]: 5.17; pKd [22]: 3.53; pKd [23]: below the threshold; pKd [24]: 4.58; pKd [25]: below the threshold; pKd [26]: 4.66; pKd [27]: 5.03 |
| QLAEIAESGL [ITK, Q08881] | 3.52 | 3.56 | below the threshold | 3.63 | below the threshold | 3.53 | 4.16 | below the threshold | 3.52 | below the threshold | below the threshold | below the threshold | below the threshold | below the threshold | below the threshold | below the threshold | below the threshold | 3.73 | below the threshold | 3.67 | pKd [21]: 5.28; pKd [22]: below the threshold; pKd [23]: below the threshold; pKd [24]: 4.54; pKd [25]: below the threshold; pKd [26]: 4.89; pKd [27]: below the threshold |
| PEEGKKQSQC [GAGE12J, A6NER3] | 3.5 | below the threshold | below the threshold | below the threshold | below the threshold | below the threshold | below the threshold | below the threshold | below the threshold | below the threshold | below the threshold | below the threshold | 4.04 | below the threshold | below the threshold | below the threshold | below the threshold | below the threshold | below the threshold | below the threshold | pKd [21]: 4.33; pKd [22]: below the threshold; pKd [23]: below the threshold; pKd [24]: 3.6; pKd [25]: below the threshold; pKd [26]: 3.91; pKd [27]: below the threshold |
| SSGSTSSSRI [ADGRG1, Q9Y653] | 3.7 | 3.54 | below the threshold | 3.93 | below the threshold | below the threshold | below the threshold | below the threshold | below the threshold | 3.7 | below the threshold | below the threshold | 3.75 | below the threshold | 3.77 | below the threshold | below the threshold | 4 | below the threshold | below the threshold | pKd [21]: 4.68; pKd [22]: below the threshold; pKd [23]: below the threshold; pKd [24]: 4; pKd [25]: below the threshold; pKd [26]: 3.86; pKd [27]: 3.57 |
